Reference: patent US20250262210A1 (TRUSTEES OF COLUMBIA UNIVERSITY IN THE CITY OF NEW YORK, published 2025)

Columns and labels:
SMPD4 = molecular target: T1, SMPD4 (human, UniProt Q9NXE4 1-866, limits assumed); assay: IP/MS, LZTR1 R810W-FLAG, U87
T1 sequence (looked up): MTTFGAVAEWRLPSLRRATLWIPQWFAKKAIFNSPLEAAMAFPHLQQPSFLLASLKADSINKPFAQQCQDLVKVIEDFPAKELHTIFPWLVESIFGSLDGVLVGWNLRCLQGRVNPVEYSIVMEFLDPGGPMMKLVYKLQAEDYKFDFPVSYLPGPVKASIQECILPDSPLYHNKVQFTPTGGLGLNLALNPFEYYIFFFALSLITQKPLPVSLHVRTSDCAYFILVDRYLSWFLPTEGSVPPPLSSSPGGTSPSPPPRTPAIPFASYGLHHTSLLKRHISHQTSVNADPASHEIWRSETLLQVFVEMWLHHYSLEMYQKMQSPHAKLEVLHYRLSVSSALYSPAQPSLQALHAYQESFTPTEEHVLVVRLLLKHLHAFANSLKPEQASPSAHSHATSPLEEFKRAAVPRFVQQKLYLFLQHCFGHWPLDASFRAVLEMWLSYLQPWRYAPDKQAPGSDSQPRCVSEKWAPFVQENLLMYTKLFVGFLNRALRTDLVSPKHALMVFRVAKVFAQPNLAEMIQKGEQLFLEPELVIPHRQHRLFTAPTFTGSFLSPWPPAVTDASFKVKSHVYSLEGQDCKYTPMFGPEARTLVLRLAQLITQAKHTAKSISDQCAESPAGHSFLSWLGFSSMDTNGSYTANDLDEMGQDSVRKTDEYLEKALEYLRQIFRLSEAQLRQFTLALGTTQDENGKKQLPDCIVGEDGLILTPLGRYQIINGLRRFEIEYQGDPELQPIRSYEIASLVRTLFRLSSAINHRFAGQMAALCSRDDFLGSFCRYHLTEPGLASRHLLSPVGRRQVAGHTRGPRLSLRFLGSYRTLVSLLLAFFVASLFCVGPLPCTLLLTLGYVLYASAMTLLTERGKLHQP
How it was run: (§1)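 Read-out: spectral counts from LC-MS/MS (Orbitrap Fusion) after MaxQuant identification. Variable modifications were Met oxidation, protein N-terminal acetylation and N/Q deamidation.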

RALGAPB = molecular target: T2, RALGAPB (human, UniProt Q86X10 1-1494, limits assumed); assay: IP/MS, LZTR1 R810W-FLAG, U87
T2 sequence (looked up): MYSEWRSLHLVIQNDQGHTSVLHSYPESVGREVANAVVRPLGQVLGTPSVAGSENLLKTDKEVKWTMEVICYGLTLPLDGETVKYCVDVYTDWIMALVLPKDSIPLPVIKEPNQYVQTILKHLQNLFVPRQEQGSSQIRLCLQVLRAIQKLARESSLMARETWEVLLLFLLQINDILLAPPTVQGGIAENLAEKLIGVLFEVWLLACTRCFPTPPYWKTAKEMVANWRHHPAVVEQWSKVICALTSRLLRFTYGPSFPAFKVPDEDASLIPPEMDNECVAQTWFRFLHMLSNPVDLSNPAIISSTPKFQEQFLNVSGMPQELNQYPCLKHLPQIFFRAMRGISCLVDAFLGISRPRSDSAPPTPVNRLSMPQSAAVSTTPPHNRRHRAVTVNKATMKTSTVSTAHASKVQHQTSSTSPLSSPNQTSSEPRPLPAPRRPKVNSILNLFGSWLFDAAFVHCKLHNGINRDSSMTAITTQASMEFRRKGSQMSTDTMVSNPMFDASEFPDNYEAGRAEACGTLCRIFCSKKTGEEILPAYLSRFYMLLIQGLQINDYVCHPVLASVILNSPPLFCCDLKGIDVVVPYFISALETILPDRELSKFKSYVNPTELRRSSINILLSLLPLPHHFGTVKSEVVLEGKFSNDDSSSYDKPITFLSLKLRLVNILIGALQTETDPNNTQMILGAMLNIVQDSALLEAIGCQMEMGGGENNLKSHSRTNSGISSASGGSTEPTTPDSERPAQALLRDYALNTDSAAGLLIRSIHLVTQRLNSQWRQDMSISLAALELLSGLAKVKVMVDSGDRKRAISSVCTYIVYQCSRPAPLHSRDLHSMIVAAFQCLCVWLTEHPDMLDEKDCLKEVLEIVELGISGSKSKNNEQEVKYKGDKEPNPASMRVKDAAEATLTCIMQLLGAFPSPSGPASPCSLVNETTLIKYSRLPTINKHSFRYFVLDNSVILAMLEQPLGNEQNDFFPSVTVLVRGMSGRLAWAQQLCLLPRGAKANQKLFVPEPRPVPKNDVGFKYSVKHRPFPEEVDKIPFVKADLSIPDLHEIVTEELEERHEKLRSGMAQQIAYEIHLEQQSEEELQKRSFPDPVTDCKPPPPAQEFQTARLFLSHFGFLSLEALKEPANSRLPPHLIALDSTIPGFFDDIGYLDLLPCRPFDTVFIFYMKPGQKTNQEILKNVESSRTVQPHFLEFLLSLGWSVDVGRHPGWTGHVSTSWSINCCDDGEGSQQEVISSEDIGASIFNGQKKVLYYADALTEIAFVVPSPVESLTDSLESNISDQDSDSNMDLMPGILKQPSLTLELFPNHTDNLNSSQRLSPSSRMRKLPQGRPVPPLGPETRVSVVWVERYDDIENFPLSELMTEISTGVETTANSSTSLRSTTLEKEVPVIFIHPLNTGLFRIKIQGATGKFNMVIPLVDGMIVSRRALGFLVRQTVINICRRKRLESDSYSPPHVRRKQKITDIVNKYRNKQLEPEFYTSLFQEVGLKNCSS
How it was run: as §1

B1: LZTR1 R810W-FLAG (other, human, UniProt Q8N653 1-840, looked up)
chain: MAGPGSTGGQIGAAALAGGARSKVAPSVDFDHSCSDSVEYLTLNFGPFETVHRWRRLPPCDEFVGARRSKHTVVAYKDAIYVFGGDNGKTMLNDLLRFDVKDCSWCRAFTTGTPPAPRYHHSAVVYGSSMFVFGGYTGDIYSNSNLKNKNDLFEYKFATGQWTEWKIEGRLPVARSAHGATVYSDKLWIFAGYDGNARLNDMWTIGLQDRELTCWEEVAQSGEIPPSCCNFPVAVCRDKMFVFSGQSGAKITNNLFQFEFKDKTWTRIPTEHLLRGSPPPPQRRYGHTMVAFDRHLYVFGGAADNTLPNELHCYDVDFQTWEVVQPSSDSEVGGAEVPERACASEEVPTLTYEERVGFKKSRDVFGLDFGTTSAKQPTQPASELPSGRLFHAAAVISDAMYIFGGTVDNNIRSGEMYRFQFSCYPKCTLHEDYGRLWESRQFCDVEFVLGEKEECVQGHVAIVTARSRWLRRKITQARERLAQKLEQEAAPVPREAPGVAAGGARPPLLHVAIREAEARPFEVLMQFLYTDKIKYPRKGHVEDVLLIMDVYKLALSFQLCRLEQLCRQYIEASVDLQNVLVVCESAARLQLSQLKEHCLNFVVKESHFNQVIMMKEFERLSSPLIVEIVRRKQQPPPRTPLDQPVDIGTSLIQDMKAYLEGAGAEFCDITLLLDGHPRPAHKAILAARSSYFEAMFRSFMPEDGQVNISIGEMVPSRQAFESMLRYIYYGEVNMPPEDSLYLFAAPYYYGFYNNRLQAYCKQNLEMNVTVQNVLQILEAADKTQALDMKRHCLHIIVHQFTKVSKLPTLWSLSQQLLLDIIDSLASHISDKQCAELGADI
notes: Stably expressed in U87 cells by lentivirus; also called LZTR1-FLAG-R810W; LZTR1 RW; not shown: FLAG tag
B1: binds (SMPD4); binds (RALGAPB).
